Measured values taken from US20040110688.

Molecular target: factor VIIIa (UniProt P00451)
Sequence (P00451 other isoform, or with tags, fused parts or gaps): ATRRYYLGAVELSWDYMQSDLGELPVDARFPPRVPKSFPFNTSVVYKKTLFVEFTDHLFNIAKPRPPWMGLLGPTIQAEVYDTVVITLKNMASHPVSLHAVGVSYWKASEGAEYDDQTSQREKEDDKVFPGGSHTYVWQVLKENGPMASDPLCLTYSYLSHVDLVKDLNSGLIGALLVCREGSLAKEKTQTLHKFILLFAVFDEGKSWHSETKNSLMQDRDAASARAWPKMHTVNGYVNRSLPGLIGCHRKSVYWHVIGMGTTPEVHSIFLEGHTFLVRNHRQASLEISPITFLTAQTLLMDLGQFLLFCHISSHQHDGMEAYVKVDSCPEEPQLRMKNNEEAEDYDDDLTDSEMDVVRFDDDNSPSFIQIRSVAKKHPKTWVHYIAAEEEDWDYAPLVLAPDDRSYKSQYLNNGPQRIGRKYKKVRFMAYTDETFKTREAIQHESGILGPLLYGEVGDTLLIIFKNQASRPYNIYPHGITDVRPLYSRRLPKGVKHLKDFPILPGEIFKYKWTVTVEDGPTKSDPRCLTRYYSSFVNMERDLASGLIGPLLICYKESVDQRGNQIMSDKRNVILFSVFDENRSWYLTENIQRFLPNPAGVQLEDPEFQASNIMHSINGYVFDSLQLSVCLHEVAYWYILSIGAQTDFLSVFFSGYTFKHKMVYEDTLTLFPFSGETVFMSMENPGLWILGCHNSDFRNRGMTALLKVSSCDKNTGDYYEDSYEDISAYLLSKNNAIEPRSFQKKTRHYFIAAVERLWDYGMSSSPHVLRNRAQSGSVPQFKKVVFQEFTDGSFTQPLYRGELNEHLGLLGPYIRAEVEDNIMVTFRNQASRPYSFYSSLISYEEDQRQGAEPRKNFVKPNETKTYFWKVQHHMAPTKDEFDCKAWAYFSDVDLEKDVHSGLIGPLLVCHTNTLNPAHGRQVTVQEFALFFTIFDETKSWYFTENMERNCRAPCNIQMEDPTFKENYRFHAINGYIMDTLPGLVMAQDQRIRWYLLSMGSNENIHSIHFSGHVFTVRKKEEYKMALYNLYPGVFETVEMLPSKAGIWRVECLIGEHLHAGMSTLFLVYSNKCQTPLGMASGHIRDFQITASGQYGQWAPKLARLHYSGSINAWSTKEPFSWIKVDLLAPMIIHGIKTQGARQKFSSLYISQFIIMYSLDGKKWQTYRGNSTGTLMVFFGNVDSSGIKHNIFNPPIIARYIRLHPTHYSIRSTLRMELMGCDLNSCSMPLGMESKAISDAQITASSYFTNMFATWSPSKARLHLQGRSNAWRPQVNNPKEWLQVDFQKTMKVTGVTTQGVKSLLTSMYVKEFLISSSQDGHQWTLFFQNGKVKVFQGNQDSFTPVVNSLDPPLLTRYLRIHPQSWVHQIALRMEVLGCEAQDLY

Question: How did the “X-activation rate, PL-minus system (14 nM VIIIa, 400 nM X)” value (“X-activation rate, PL-minus system” below) turn out when IXaL337I was run?
Answer: NM

Question: And the “X-activation rate, PL-plus system (70 pM VIIIa, 0.5 nM IXa, 15 nM X)” value (“X-activation rate, PL-plus system” for short)?
Answer: NM

Question: What about the “rate of factor X activation with phospholipid, factor VIIIa increased from 70 pM to 14 nM” value of the same substance?
Answer: IXaL337I ~3.2 nM/min

Question: What does the source list for IXaL330I?
Answer: X-activation rate, PL-minus system (14 nM VIIIa, 400 nM X): 0.94 nM/min; X-activation rate, PL-plus system (70 pM VIIIa, 0.5 nM IXa, 15 nM X): 0.95 nM/min

Question: Which results are given for IXaR338Q?
Answer: X-activation rate, PL-minus system (14 nM VIIIa, 400 nM X): 2.22 nM/min; X-activation rate, PL-plus system (70 pM VIIIa, 0.5 nM IXa, 15 nM X): 2.53 nM/min

Question: With IXaR333L as the substance, how does the “X-activation rate, PL-minus system” value read?
Answer: NM

Question: And the “X-activation rate, PL-plus system” value?
Answer: NM

Question: And the “rate of factor X activation with phospholipid, factor VIIIa increased from 70 pM to 14 nM” value?
Answer: IXaP333L ~2.7 nM/min

Question: Which X-activation rate, PL-minus system (14 nM VIIIa, 400 nM X) does the source give for IXaPCEGF1 here?
Answer: 2.71 nM/min

Question: And the “X-activation rate, PL-plus system” value?
Answer: NM

Question: With IXaD332Y as the substance, how does the “X-activation rate, PL-minus system” value read?
Answer: NM

Question: What about the “X-activation rate, PL-plus system” value of the same substance?
Answer: NM

Question: What about the “rate of factor X activation with phospholipid, factor VIIIa increased from 70 pM to 14 nM” value of the same substance?
Answer: IXaD332Y ~4.1 nM/min

Question: For IXaR333Q, which “X-activation rate, PL-minus system” value is on record?
Answer: NM

Question: What about the “X-activation rate, PL-plus system” value of the same substance?
Answer: NM

Question: What about the “rate of factor X activation with phospholipid, factor VIIIa increased from 70 pM to 14 nM” value of the same substance?
Answer: IXaR333Q ~2.4 nM/min

Question: Which X-activation rate, PL-minus system (14 nM VIIIa, 400 nM X) does the source give for IXaT335A here?
Answer: 1.83 nM/min

Question: What about the X-activation rate, PL-plus system (70 pM VIIIa, 0.5 nM IXa, 15 nM X) of the same substance?
Answer: 1.92 nM/min

Question: Which results are given for IXaQ50P?
Answer: X-activation rate, PL-minus system (14 nM VIIIa, 400 nM X): 2.81 nM/min; X-activation rate, PL-plus system (70 pM VIIIa, 0.5 nM IXa, 15 nM X): NM
